The assay has as its target human OSM (recombinant, mammalian-cell derived, OSMN1-1) (human) (UniProt P13725). The assay can be described thus: cell-based or functional assay.

human OSM (recombinant, mammalian-cell derived, OSMN1-1) (human), sequence (P13725 26-221 limits assumed): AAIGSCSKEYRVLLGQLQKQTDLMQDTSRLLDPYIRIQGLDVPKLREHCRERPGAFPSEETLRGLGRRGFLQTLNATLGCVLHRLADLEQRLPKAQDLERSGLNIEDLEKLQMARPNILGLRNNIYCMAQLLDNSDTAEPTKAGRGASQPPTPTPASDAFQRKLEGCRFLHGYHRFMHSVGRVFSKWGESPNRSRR

Regarding MAB295 (R&D Systems) (antibody), the pSTAT3 inhibition EC50 (A375 cells, 5 ng/ml hOSM) amounted to 72.1 ng/ml.

(Values after patent publication US20190092856A1.)
